Consider 94 variants from the supplement of paper PMC10567573.

The labels stand for the following.
B1: WDR41 (parent)
chain: WTMQAYERNFWDPSPQLDTQQEIK
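Also: lentivirally expressed fusions sorted by FACS into six bins by GFP to DsRed ratio, PSI derived from sequencing read proportions per bin multiplied by bin number.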

This series covers variants of B1. Put plainly: protein stability index of a GFP-peptide fusion (GPS, HEK-293T) (PSI 1-6); higher = more stable. To be noted: c terminus: a fixed tail appended.
WTMIAYERNFWDPSPQLDTQQEIK [Q4I]: the protein stability index is 3.51.

As for WTMCAYERNFWDPSPQLDTQQEIK [Q4C], the protein stability index was found to be 2.27.

WTMAAYERNFWDPSPQLDTQQEIK [Q4A]: the protein stability index was 2.23.

Regarding WTMFAYERNFWDPSPQLDTQQEIK [Q4F], the protein stability index was 2.38.

As for WTMHAYERNFWDPSPQLDTQQEIK [Q4H], the protein stability index turned out to be 1.89.

For WTMEAYERNFWDPSPQLDTQQEIK [Q4E], the protein stability index came out at 2.05.

For WTMDAYERNFWDPSPQLDTQQEIK [Q4D], the protein stability index is 2.26.

As for WTMVAYERNFWDPSPQLDTQQEIK [Q4V], the protein stability index turned out to be 2.25.

Regarding WTMRAYERNFWDPSPQLDTQQEIK [Q4R], the protein stability index is 1.8.

In the case of WTMQAYERNFWDPSPQLDTQQAIK [E22A], the protein stability index was determined as 2.45.

With WTMQAYERNFWDPSPQLDTQQVIK [E22V], the protein stability index worked out at 2.36.

As to WTMQAYERNFWDPSPQLDTQQCIK [E22C], the protein stability index is 2.55.

Consider WTMQAYERNFWDPSPQLDTQQYIK [E22Y], for which the protein stability index turned out to be 2.17.

As to WTMQAYERNFWDPSPQLDTQQLIK [E22L], the protein stability index was determined as 2.07.

For the variant WTMQAYERNFWDPSPQLDTQQMIK [E22M], the protein stability index came out at 2.03.

As to WTMQAYERNFWDPSPQLDTQQSIK [E22S], the protein stability index stood at 2.96.

As for WTMQAYERNFWDPSPQLDTQCEIK [Q21C], the protein stability index came to 2.12.

As to WTMQAYERNFWDPSPQLDTQAEIK [Q21A], the protein stability index is 2.39.

For WTMQAYERNFWDPSPQLDTQKEIK [Q21K], the protein stability index is 2.28.

For WTMQAYERNFWDPSPQLDTQMEIK [Q21M], the protein stability index was found to be 2.93.

With WTMQAYERNFWDPSPQLDTQLEIK [Q21L], the protein stability index came out at 1.92.

With WTMQAYERNFWDPSPQLDTQFEIK [Q21F], the protein stability index was 1.93.

Take WTMQAYERNFWDPSPQLDTQWEIK [Q21W]: the protein stability index amounted to 1.6.

Take WTMQAYERNFWDPSPQLDTQTEIK [Q21T]: the protein stability index is 2.5.

With WTMQAYERNFWDPSPQLDTQDEIK [Q21D], the protein stability index is 2.1.

Regarding WTMQAYERNFWDPSPQLDTQREIK [Q21R], the protein stability index was 2.84.

For the variant WTMQAYERNFWDPSPQLDTQHEIK [Q21H], the protein stability index was found to be 1.99.

Consider WTMQAYERNFWDPSPVLDTQQEIK [Q16V], for which the protein stability index amounted to 2.03.

Regarding WTMQAYERNFWDPSPILDTQQEIK [Q16I], the protein stability index turned out to be 2.33.

For the variant WTMQAYERNFWDPSPRLDTQQEIK [Q16R], the protein stability index was determined as 2.14.

Take WTMQAYERNFWDPSPLLDTQQEIK [Q16L]: the protein stability index came out at 2.42.

WTMQAYERNFWDPSPTLDTQQEIK [Q16T]: the protein stability index was determined as 2.67.

Regarding WTMQAYERNFWDPSPMLDTQQEIK [Q16M], the protein stability index stood at 1.46.

As to WTMQAYERNFWDPSPDLDTQQEIK [Q16D], the protein stability index is 2.65.

With WTMQAYERNFWDPSPSLDTQQEIK [Q16S], the protein stability index stood at 1.82.

Turning to WTMQAYERNFWDPSPQLDTQQEIS [K24S], the protein stability index worked out at 2.59.

Turning to WTMQAYERNFWDPSPQLDTQQEII [K24I], the protein stability index was determined as 1.98.

As to WTMQAYERNFWDPSPQLDTQQEIN [K24N], the protein stability index was 2.31.

With WTMQAYERNFWDPSPQLDTQQEIF [K24F], the protein stability index is 2.01.

As for WTMQAYERNFWDPSPQLDTQQEIM [K24M], the protein stability index stood at 1.91.

Regarding WTMQAYERNFWDPSPQLDTQQEIV [K24V], the protein stability index came to 2.17.

In the case of WTMQAYERNFWDPSPQLDTQQEIC [K24C], the protein stability index is 2.19.

As for WTMQAYERNFWDPSPQLDTQQEIR [K24R], the protein stability index amounted to 2.58.

Take WAMQAYERNFWDPSPQLDTQQEIK [T2A]: the protein stability index worked out at 2.01.

Take WVMQAYERNFWDPSPQLDTQQEIK [T2V]: the protein stability index is 2.14.

In the case of WNMQAYERNFWDPSPQLDTQQEIK [T2N], the protein stability index was 2.11.

Turning to WRMQAYERNFWDPSPQLDTQQEIK [T2R], the protein stability index is 2.91.

In the case of WQMQAYERNFWDPSPQLDTQQEIK [T2Q], the protein stability index was determined as 2.89.

In the case of WGMQAYERNFWDPSPQLDTQQEIK [T2G], the protein stability index was determined as 2.93.

WTMQAYERNFWDPMPQLDTQQEIK [S14M]: the protein stability index was 2.47.

With WTMQAYERNFWDPRPQLDTQQEIK [S14R], the protein stability index was 2.37.

In the case of WTMQAYERNFWDPNPQLDTQQEIK [S14N], the protein stability index is 2.74.

WTMQAYERNFWDPIPQLDTQQEIK [S14I]: the protein stability index stood at 2.17.

As for WTMQAYERNFWDPTPQLDTQQEIK [S14T], the protein stability index was determined as 2.89.

With WTMQAYERNFWDPHPQLDTQQEIK [S14H], the protein stability index amounted to 1.94.

For WTMQAYERNFWDPAPQLDTQQEIK [S14A], the protein stability index was found to be 3.06.

WTIQAYERNFWDPSPQLDTQQEIK [M3I]: the protein stability index is 2.14.

Take WTLQAYERNFWDPSPQLDTQQEIK [M3L]: the protein stability index stood at 2.69.

As for WTFQAYERNFWDPSPQLDTQQEIK [M3F], the protein stability index is 2.07.

In the case of WTYQAYERNFWDPSPQLDTQQEIK [M3Y], the protein stability index was 2.24.

For WTTQAYERNFWDPSPQLDTQQEIK [M3T], the protein stability index is 2.86.

For WTKQAYERNFWDPSPQLDTQQEIK [M3K], the protein stability index was determined as 2.96.

WTDQAYERNFWDPSPQLDTQQEIK [M3D]: the protein stability index was found to be 3.96.

For the variant WTSQAYERNFWDPSPQLDTQQEIK [M3S], the protein stability index was 1.79.

WTMQAYERNFWDPSPQLDTGQEIK [Q20G]: the protein stability index turned out to be 2.19.

As for WTMQAYERNFWDPSPQLDTSQEIK [Q20S], the protein stability index is 2.07.

With WTMQAYERNFWDPSPQLDTTQEIK [Q20T], the protein stability index came to 2.04.

Consider WTMQAYERNFWDPSPQLDTDQEIK [Q20D], for which the protein stability index was 3.42.

As for WTMQAYERNFWDPSPQLDTYQEIK [Q20Y], the protein stability index was found to be 2.07.

Turning to WTMQAYERNFWDPSPQLDTAQEIK [Q20A], the protein stability index was found to be 1.64.

On to WTMQAYERNFWDPSPQLDTRQEIK [Q20R], for which the protein stability index was 2.44.

WTMQAYERNFWDPSPQLDTIQEIK [Q20I]: the protein stability index came to 2.07.

For WTMQAYERNFWDPSPQLDTLQEIK [Q20L], the protein stability index came out at 2.19.

Consider WTMQAYERNFWDPSPQLDTNQEIK [Q20N], for which the protein stability index was 2.88.

On to WTMQAYERNFWDPSPQLDTQQEMK [I23M], for which the protein stability index was determined as 2.18.

In the case of WTMQAYERNFWDPSPQLDTQQEYK [I23Y], the protein stability index was found to be 2.32.

On to WTMQAYERNFWDPSPQLDTQQEEK [I23E], for which the protein stability index worked out at 3.26.

As to WTMQAYERNFWDPSPQLDTQQELK [I23L], the protein stability index turned out to be 2.91.

For WTMQAYERNFWDPSPQLDTQQEVK [I23V], the protein stability index was 2.02.

Turning to WTMQAYERNFWDPSPQLDTQQEDK [I23D], the protein stability index came to 3.61.

For the variant WTMQAYERNNWDPSPQLDTQQEIK [F10N], the protein stability index came out at 3.7.

In the case of WTMQAYERNRWDPSPQLDTQQEIK [F10R], the protein stability index is 3.55.

Consider WTMQAYERNSWDPSPQLDTQQEIK [F10S], for which the protein stability index stood at 3.95.

Consider WTMQAYERNIWDPSPQLDTQQEIK [F10I], for which the protein stability index came to 3.58.

On to WTMQAYERNAWDPSPQLDTQQEIK [F10A], for which the protein stability index was found to be 3.23.

As for WTMQAYERNDWDPSPQLDTQQEIK [F10D], the protein stability index came to 4.7.

As for WTMQKYERNFWDPSPQLDTQQEIK [A5K], the protein stability index was 2.96.

WTMQFYERNFWDPSPQLDTQQEIK [A5F]: the protein stability index is 1.91.

WTMQVYERNFWDPSPQLDTQQEIK [A5V]: the protein stability index stood at 2.12.

As to WTMQRYERNFWDPSPQLDTQQEIK [A5R], the protein stability index was determined as 3.25.

Consider WTMQEYERNFWDPSPQLDTQQEIK [A5E], for which the protein stability index came to 3.65.

For WTMQDYERNFWDPSPQLDTQQEIK [A5D], the protein stability index is 3.33.

Regarding WTMQLYERNFWDPSPQLDTQQEIK [A5L], the protein stability index is 2.66.

For the variant WTMQAYRRNFWDPSPQLDTQQEIK [E7R], the protein stability index was 2.86.
